The values that follow come from publication PMC4339880, “Enzymatic properties and subtle differences in the substrate specificity of phylogenetically distinct invertebrate N-glycan processing hexosaminidases” (Glycobiology, 2014).

For data set [1], the target named is T1, DmFDL (Drosophila melanogaster FDL) (Drosophila melanogaster, UniProt Q8WSF3, G400V).
T1 construct: soluble form without transmembrane domain, alpha-factor secretion signal, N-terminal His-tag, P. pastoris X-33 (codon-optimized; also made in Hi5 insect cells), Ni-NTA purified
T1 sequence (Q8WSF3 37-660 G400V limits assumed): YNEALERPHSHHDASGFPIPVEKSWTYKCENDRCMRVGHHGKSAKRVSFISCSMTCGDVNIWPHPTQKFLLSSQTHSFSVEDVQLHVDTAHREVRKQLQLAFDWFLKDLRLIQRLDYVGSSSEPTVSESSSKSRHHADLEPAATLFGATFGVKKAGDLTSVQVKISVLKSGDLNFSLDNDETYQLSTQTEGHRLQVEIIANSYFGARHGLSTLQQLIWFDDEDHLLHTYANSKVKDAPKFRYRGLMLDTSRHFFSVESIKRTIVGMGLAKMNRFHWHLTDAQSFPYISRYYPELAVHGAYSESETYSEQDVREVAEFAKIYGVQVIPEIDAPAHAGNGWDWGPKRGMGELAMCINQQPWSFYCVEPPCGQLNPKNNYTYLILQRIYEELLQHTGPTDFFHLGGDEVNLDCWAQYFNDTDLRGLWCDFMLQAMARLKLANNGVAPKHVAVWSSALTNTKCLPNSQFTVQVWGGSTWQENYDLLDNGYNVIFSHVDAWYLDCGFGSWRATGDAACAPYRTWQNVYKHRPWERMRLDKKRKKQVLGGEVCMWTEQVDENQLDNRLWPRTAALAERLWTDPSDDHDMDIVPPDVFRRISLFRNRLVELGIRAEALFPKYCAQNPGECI
The data set is described as follows: p-nitrophenol release, A405. The class given is biochemical. Particulars: 5 mM substrate, McIlvaine buffer, 30°C.

Data set [2] deals with T2, DmFDL (Drosophila melanogaster FDL) (Drosophila melanogaster, UniProt Q8WSF3, W506A).
T2 construct: soluble form without transmembrane domain, alpha-factor secretion signal, N-terminal His-tag, P. pastoris X-33 (codon-optimized; also made in Hi5 insect cells), Ni-NTA purified
T2 sequence (Q8WSF3 37-660 W506A limits assumed): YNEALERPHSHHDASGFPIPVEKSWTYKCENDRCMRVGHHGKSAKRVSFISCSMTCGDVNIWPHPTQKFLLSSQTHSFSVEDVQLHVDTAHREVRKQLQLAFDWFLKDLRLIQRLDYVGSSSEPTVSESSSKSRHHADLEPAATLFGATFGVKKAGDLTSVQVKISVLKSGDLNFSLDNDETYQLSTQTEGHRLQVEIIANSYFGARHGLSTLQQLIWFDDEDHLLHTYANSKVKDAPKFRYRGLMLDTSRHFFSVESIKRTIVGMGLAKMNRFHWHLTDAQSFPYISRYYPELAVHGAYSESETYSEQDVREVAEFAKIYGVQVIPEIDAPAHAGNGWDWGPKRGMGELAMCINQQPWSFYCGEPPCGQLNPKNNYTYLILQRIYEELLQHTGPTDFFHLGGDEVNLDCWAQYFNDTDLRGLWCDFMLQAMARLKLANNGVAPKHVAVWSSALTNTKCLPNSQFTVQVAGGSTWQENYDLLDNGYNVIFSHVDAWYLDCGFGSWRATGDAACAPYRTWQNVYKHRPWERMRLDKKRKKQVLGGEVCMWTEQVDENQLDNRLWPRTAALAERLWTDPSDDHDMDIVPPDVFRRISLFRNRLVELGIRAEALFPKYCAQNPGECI
The data set is described as follows: p-nitrophenol release, A405. The note with it: 5 mM substrate, McIlvaine buffer, 30°C. The class given is biochemical.

Data set [3] addresses T3, CeHEX-4 (Caenorhabditis HEX-4) (Caenorhabditis elegans, UniProt Q8WTK2).
T3 sequence (Q8WTK2 25-491): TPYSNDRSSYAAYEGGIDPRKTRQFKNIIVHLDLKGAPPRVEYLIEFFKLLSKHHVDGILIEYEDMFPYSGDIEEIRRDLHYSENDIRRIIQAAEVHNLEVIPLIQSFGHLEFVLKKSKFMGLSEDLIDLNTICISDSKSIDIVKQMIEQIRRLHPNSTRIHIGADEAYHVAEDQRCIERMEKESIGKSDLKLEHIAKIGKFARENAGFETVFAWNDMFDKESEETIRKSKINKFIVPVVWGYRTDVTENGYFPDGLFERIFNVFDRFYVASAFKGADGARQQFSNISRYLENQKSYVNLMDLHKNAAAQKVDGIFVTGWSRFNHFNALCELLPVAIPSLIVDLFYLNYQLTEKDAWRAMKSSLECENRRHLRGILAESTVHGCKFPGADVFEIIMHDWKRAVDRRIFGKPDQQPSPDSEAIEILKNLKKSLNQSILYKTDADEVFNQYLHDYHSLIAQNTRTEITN
The data set is described as follows: inhibition of pNP-β-GalNAc hydrolysis (A405), Cheng-Prusoff from IC50; Dixon plot. Format: biochemical. Particulars: substrate pNP-β-GalNAc, McIlvaine buffer, 37°C.

Substrate in data set [4]: CC(=O)N[C@H]1[C@H](Oc2ccc([N+](=O)[O-])cc2)O[C@H](CO)[C@H](O)[C@@H]1O
Description: p-nitrophenol release, A405, non-linear fit. Format: biochemical, Caenorhabditis elegans. The note with it: McIlvaine buffer at optimal pH (5-6), 37°C.

Substrate in data set [5]: CC(=O)N[C@H]1[C@H](Oc2ccc([N+](=O)[O-])cc2)O[C@H](CO)[C@@H](O)[C@@H]1O
The data set is described as follows: p-nitrophenol release, A405, non-linear fit. The class given is biochemical, Caenorhabditis elegans. The note with it: McIlvaine buffer at optimal pH (5-6), 37°C.

Substrate in data set [6]: CC(=O)N[C@H]1[C@H](Oc2ccc([N+](=O)[O-])cc2)O[C@H](CO)[C@H](O)[C@@H]1O
The data set is described as follows: purified protein, by the assay type. The arrangement: p-nitrophenol release from pNP-glycoside substrate, A405, non-linear Michaelis-Menten fit. The procedure:
(§1) Determination of Km, specific activity, kcat and Ki Standard enzymatic activity assays were performed using pNP-β-GlcNAc (Sigma, USA) and pNP-β-GalNAc (Sigma, USA) as a substrate. The assays were performed at a substrate concentration of 5 mM in McIlvaine buffer, pH 4.0–6.0 at 30°C for Drosophila FDL and at 37°C for the other hexosaminidases. The total reaction volume was 40 µL and incubation time was 2 h. All purified enzymes were tested for additional activities using a range of p-nitrophenyl-sugars as substrates at a concentration of 5 mM for 4 h. After the addition of 200 µL of 0.4 M glycine/NaOH pH 10.4, A405nm was determined on a Tecan Infinite M200 microtiter plate reader (Tecan, Austria). All enzymes were appropriately diluted for measurements in order to measure reactions within the linear range of the assay. Enzyme units are given in µmol product (nitrophenol) per minute.

Substrate in data set [7]: CC(=O)N[C@H]1[C@H](Oc2ccc([N+](=O)[O-])cc2)O[C@H](CO)[C@@H](O)[C@@H]1O
Description: purified protein, by the assay type. Further details: p-nitrophenol release from pNP-glycoside substrate, A405, non-linear Michaelis-Menten fit. The procedure: as §1

For the molecule `CC(=O)N[C@H]1[C@H](Oc2ccc([N+](=O)[O-])cc2)O[C@H](CO)[C@H](O)[C@@H]1O` [pNP-β-GalNAc, p-nitrophenyl-β-D-N-acetylgalactosaminide], the entries for the “p-nitrophenol release, A405” value in data set [1] and in data set [2] were “the Drosophila G400V mutant showed increased” and “the W506A mutant showed decreased activity toward pNP-β-GalNAc”, respectively.

The Ki is the equilibrium dissociation constant of an inhibitor or competing ligand from its target. Low values mean tighter binding, high ones weaker binding. `CC(=O)N[C@H]1C(O)O[C@H](CO)[C@H](O)[C@@H]1O` (stereo partly shown) [GalNAc, N-acetylgalactosamine] showed an inhibition constant Ki in data set [3] of 1000 µM.

B1: CeHEX-3 (C. elegans HEX-3) (Caenorhabditis elegans) (protein)
chain: TSQFKSTTTHARFVPEPSDPRLHPNSPLQAPKAQEPAAAETTKKPSRQPHHTTAKPRTENVEINGEKYPKLSPDGNLIPQRRIVHLDLKGAPYKPEFFTELFAFFNRIQATGILLEWEDMFPFKGRLRGAINKNAYSMETVEHILQEAQKHHLQIIPLVQTMGHLEWILKLEEFAHLREDTRFPQVICFSDENAWELIKEMIEEVANVHKKYGMSYFHIGADEAFQIGICNASITQIKKEFTRERLMLWHIARTARFVKEKYPETQVLAWHDMLASAMESDIEDYKLTELLQPVLWNYAEDLDIYLPRSTWMIVRNFRNVWGSSAWKGADGPARYSTNANHYLKNHESWIKQFTMVYKDFEVVEGLIMAGWSRYDHFAVLAETIPVALPTLAMSMETMIEGRPLAGNYPVTSELLQCTPPLDLGFTATGCKFPGNRIYELINEMYQKQMQLRTYRLDDYELNGWLSRVADDYSVSSHWYIDKIENMIEMHATPLEQLADDLRFEMERIFFKDTVDEFIFTYLGEDLEWFNRKRETIRKVSTSQTFPKRPFIESAKSEKTCT
In general, Km refers to the substrate concentration at which the rate is half of its maximum. For orientation: kcat means the number of substrate molecules converted per active site and unit of time at saturation. As a reminder, the kcat/Km is the second-order rate constant that governs catalysis at low substrate concentration. Turning to B1, in data set [4], the Michaelis-Menten constant (Km) was 590 ± 140 µM, the catalytic constant (kcat) amounted to 5.2 ± 1 s⁻¹ and the kcat/Km worked out at 7800 ± 3000 M⁻¹ s⁻¹. In addition, in data set [5], the Km amounted to 970 ± 700 µM, the kcat was found to be 0.1 s⁻¹ and the kcat/Km worked out at 200 ± 100 M⁻¹ s⁻¹.

B2: DmFDL (Drosophila melanogaster FDL) (Drosophila melanogaster) (protein)
chain: YNEALERPHSHHDASGFPIPVEKSWTYKCENDRCMRVGHHGKSAKRVSFISCSMTCGDVNIWPHPTQKFLLSSQTHSFSVEDVQLHVDTAHREVRKQLQLAFDWFLKDLRLIQRLDYVGSSSEPTVSESSSKSRHHADLEPAATLFGATFGVKKAGDLTSVQVKISVLKSGDLNFSLDNDETYQLSTQTEGHRLQVEIIANSYFGARHGLSTLQQLIWFDDEDHLLHTYANSKVKDAPKFRYRGLMLDTSRHFFSVESIKRTIVGMGLAKMNRFHWHLTDAQSFPYISRYYPELAVHGAYSESETYSEQDVREVAEFAKIYGVQVIPEIDAPAHAGNGWDWGPKRGMGELAMCINQQPWSFYCGEPPCGQLNPKNNYTYLILQRIYEELLQHTGPTDFFHLGGDEVNLDCWAQYFNDTDLRGLWCDFMLQAMARLKLANNGVAPKHVAVWSSALTNTKCLPNSQFTVQVWGGSTWQENYDLLDNGYNVIFSHVDAWYLDCGFGSWRATGDAACAPYRTWQNVYKHRPWERMRLDKKRKKQVLGGEVCMWTEQVDENQLDNRLWPRTAALAERLWTDPSDDHDMDIVPPDVFRRISLFRNRLVELGIRAEALFPKYCAQNPGECI
notes: soluble form without transmembrane domain, alpha-factor secretion signal, N-terminal His-tag, P. pastoris X-33 (codon-optimized; also made in Hi5 insect cells), Ni-NTA purified
B2: in data set [6], the Km was 520 ± 30 µM, the kcat came to 5.6 ± 0.1 s⁻¹ and the kcat/Km was 11900 ± 800 M⁻¹ s⁻¹. Besides, in data set [7], the Michaelis constant (Km) worked out at 1400 ± 80 µM, the kcat is 48.2 ± 2.2 s⁻¹ and the kcat/Km was 42000 ± 1800 M⁻¹ s⁻¹.

B3: CeHEX-2 (C. elegans HEX-2) (Caenorhabditis elegans) (protein)
chain: SYPKGGISQRALDSMQKEPQTPVLVQKRENFEESIDVAVEQESKKENPFVNQQASTENAKPITQEVKIERPSRDNEFYKNVVIHFDLKGAPPKVDYFLDLLRLIAKGGATGILLEWEDMFPWTGKLEQFKNTDAYSESDVDMILSEATKLKLDVIPLVQTFGHLEWILKYEEMRKYRENDAYPQVLCLGNEEGVEFVREMIRQVAKKHAKYGIPFFHIGADEAFEFGVCQESLDWIKKNGKNGRKQLLALAHLKAIAEFAKQQTGDSTQILAWHDMLKDFDSRLIKNLELGQIIQPVVWDYSENIITLNDYIFSALAENFPTMWASSAYKGANYPSASTSEVRHYETNNRNWIRTKQNQERKFKNGFQGIIVTGWQRYDHLAGLCETLPIGTASMMLQMQIALNAPALDLEGTRQKAATLLECQGFNVDGVKVVSNQCKYRGFQTYLIYQSEVPNLFARIDSELSKNHHLMGWANRYNRKYNISQNWYHREMLPFVQQLVGQYDRVESDLRASMKDLYFENTIDEFIYENLGEMSEKLHGYLEEIQRLDKLRAWPKRHFPIKK
notes: soluble form without transmembrane domain, alpha-factor secretion signal, C-terminal His-tag, P. pastoris X-33, Ni-NTA purified
Turning to B3, the Km in data set [4] stood at 410 ± 80 µM. Also, in data set [5], the Km is 230 ± 150 µM, the kcat was 8.6 ± 0.8 s⁻¹ and the specificity constant (kcat/Km) amounted to 22000 ± 3600 M⁻¹ s⁻¹.

B4: CeHEX-4 (Caenorhabditis HEX-4) (Caenorhabditis elegans) (protein)
chain: TPYSNDRSSYAAYEGGIDPRKTRQFKNIIVHLDLKGAPPRVEYLIEFFKLLSKHHVDGILIEYEDMFPYSGDIEEIRRDLHYSENDIRRIIQAAEVHNLEVIPLIQSFGHLEFVLKKSKFMGLSEDLIDLNTICISDSKSIDIVKQMIEQIRRLHPNSTRIHIGADEAYHVAEDQRCIERMEKESIGKSDLKLEHIAKIGKFARENAGFETVFAWNDMFDKESEETIRKSKINKFIVPVVWGYRTDVTENGYFPDGLFERIFNVFDRFYVASAFKGADGARQQFSNISRYLENQKSYVNLMDLHKNAAAQKVDGIFVTGWSRFNHFNALCELLPVAIPSLIVDLFYLNYQLTEKDAWRAMKSSLECENRRHLRGILAESTVHGCKFPGADVFEIIMHDWKRAVDRRIFGKPDQQPSPDSEAIEILKNLKKSLNQSILYKTDADEVFNQYLHDYHSLIAQNTRTEITN
Consider B4, for which, in data set [4], the Michaelis constant (Km) was 590 ± 50 µM, the kcat turned out to be 13.8 ± 1.4 s⁻¹ and the kcat/Km is 19500 ± 2300 M⁻¹ s⁻¹. Moreover, in data set [5], the Km stood at 3470 ± 350 µM, the kcat stood at 12.6 ± 1.4 s⁻¹ and the kcat/Km is 2200 ± 100 M⁻¹ s⁻¹.
